T1: Haa1(DBD)-His6 (Saccharomyces cerevisiae, UniProt Q12753 1-123)
T1 sequence: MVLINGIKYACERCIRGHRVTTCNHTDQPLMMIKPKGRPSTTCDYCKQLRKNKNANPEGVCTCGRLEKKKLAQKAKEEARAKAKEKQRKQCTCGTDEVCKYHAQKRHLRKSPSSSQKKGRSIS

B1: TPO3 wild-type HRE (GGCGAGGGG) (dsDNA)
DNA 1: TTCTCTGTGCTTGGCGAGGGGTTTACTGGAGCCCAATC
DNA 2: GATTGGGCTCCAGTAAACCCCTCGCCAAGCACAGAGAA
B2: HRE mutant 1 (AGCGAGGGG) (dsDNA)
DNA 1: TTCTCTGTGCTTAGCGAGGGGTTTACTGGAGCCCAATC
DNA 2: GATTGGGCTCCAGTAAACCCCTCGCTAAGCACAGAGAA
B3: HRE mutant 2 (GGCCAGGGG) (dsDNA)
DNA 1: TTCTCTGTGCTTGGCCAGGGGTTTACTGGAGCCCAATC
DNA 2: GATTGGGCTCCAGTAAACCCCTGGCCAAGCACAGAGAA
B4: HRE mutant 3 (GGCGCGGGG) (dsDNA)
DNA 1: TTCTCTGTGCTTGGCGCGGGGTTTACTGGAGCCCAATC
DNA 2: GATTGGGCTCCAGTAAACCCCGCGCCAAGCACAGAGAA
B5: HRE mutant 4 (GGCGAAGGG) (dsDNA)
DNA 1: TTCTCTGTGCTTGGCGAAGGGTTTACTGGAGCCCAATC
DNA 2: GATTGGGCTCCAGTAAACCCTTCGCCAAGCACAGAGAA
B6: HRE mutant 5 (GGCGAGAGG) (dsDNA)
DNA 1: TTCTCTGTGCTTGGCGAGAGGTTTACTGGAGCCCAATC
DNA 2: GATTGGGCTCCAGTAAACCTCTCGCCAAGCACAGAGAA
B7: HRE mutant 6 (GGCGAGGCG) (dsDNA)
DNA 1: TTCTCTGTGCTTGGCGAGGCGTTTACTGGAGCCCAATC
DNA 2: GATTGGGCTCCAGTAAACGCCTCGCCAAGCACAGAGAA
B8: HRE mutant 7 (GGCGAGGAG) (dsDNA)
DNA 1: TTCTCTGTGCTTGGCGAGGAGTTTACTGGAGCCCAATC
DNA 2: GATTGGGCTCCAGTAAACTCCTCGCCAAGCACAGAGAA
B9: HRE mutant 8 (GGCGAGGGA) (dsDNA)
DNA 1: TTCTCTGTGCTTGGCGAGGGATTTACTGGAGCCCAATC
DNA 2: GATTGGGCTCCAGTAAATCCCTCGCCAAGCACAGAGAA

The binders below were run against T1, Haa1(DBD)-His6 (assay: SPR).
Binder B1 has a Kd of 2 ± 0.2 nM.
B2 showed a Kd of 1.9 ± 0.3 nM.
Work on B3 yielded a Kd of 4.3 ± 0.3 nM.
B4 was tested, and the Kd was 13.6 ± 0.9 nM.
For B5, the Kd was 396 ± 51.1 nM.
In the case of B6, the Kd is reported as 21.4 ± 6.1 nM.
B7 showed a Kd of 38.5 ± 4.5 nM.
B8 was tested, and the Kd was 6780 ± 865 nM.
B9 was tested, and the Kd was 119 ± 3.6 nM.
